Test results reported in patent publication US20210246209A1 (SHANGHAI JUNSHI BIOSCIENCES, published 2021).

How the values were obtained:
[1] = target: T1, recombinant protein of human BTLA extracellular domain (hBTLA-ECD-FC) (human, UniProt Q7Z6A9 31-157, biotin-labeled in the FACS blocking assays (site not stated)); assay: SPR, Biacore T200, BTLA-Fc amine-coupled to chip, antibody as analyte, 1:1 fit
T1 construct: extracellular domain; also called BTLA-Fc; biotin-labeled hBTLA; not shown: Fc of the self-constructed HX1-FC expression plasmid
T1 sequence (looked up): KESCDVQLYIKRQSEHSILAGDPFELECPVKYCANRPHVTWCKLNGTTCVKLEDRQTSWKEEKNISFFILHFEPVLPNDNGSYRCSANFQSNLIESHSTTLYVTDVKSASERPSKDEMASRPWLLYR
Description: The assay was carried out using a Biacore T200 instrument (GE Healthcare). Series S CMS chip was loaded on the instrument and the system buffer used was HBS-EP+(10 mM HEPES, pH 7.4, 150 mM NaCl, 3 mM EDTA, 0.05% surfactant P20). The BTLA-Fc antigens were coupled in a chip detection channel: injecting a mixed solution of 400 mM EDC and 100 mM NHS at 10 μL/min for 420 s to activate the surface of the chip, diluting the BTLA-Fc antigens in a 10 mM sodium acetate/acetic acid (pH 5.5) buffer to a final concentration of 20 μg/mL and injecting at 10 μL/min for coupling, and injecting a 1M ethanolamine-hydrochloric acid solution (pH 8.5) at 10 μL/min for 420 s for blocking.
Antibodies were diluted in a 2-fold gradient with Biacore system buffer for a total of 6 concentration points. Concentration gradients were 24 nM, 12 nM, 6 nM, 3 nM, 1.5 nM and 0.75 nM, with 24 nM being a replicate. Data were analyzed using Biacore T200 Evaluation Software (version no. 3.0, GE Healthcare). Data were fitted using a model of 1:1 Binding. The kinetic constants of the binding of the antibodies to the antigens, namely, the association rate constant ka (1/Ms), dissociation rate constant kd (1/s) and the affinity constant kd (M), were obtained by fitting, and the results are shown in Table 8.

[2] = target: T2, hBTLA (human BTLA protein coated on plates or coupled to a chip) (human, UniProt Q7Z6A9 31-157, limits assumed); assay: ELISA, hBTLA coated at 0.5 µg/mL, anti-human IgG4-HRP detection
T2 sequence (looked up): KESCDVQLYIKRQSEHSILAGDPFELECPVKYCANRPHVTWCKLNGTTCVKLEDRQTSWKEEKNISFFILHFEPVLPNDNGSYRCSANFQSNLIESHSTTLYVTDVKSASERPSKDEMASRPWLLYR
Description: The binding specificity of the humanized antibodies to hBTLA was determined by conventional ELISA method. A 96-well microplate was coated with 0.5 μg/mL hBTLA and incubated at 37° C. for 60 minutes. The solution in wells was then discarded, and the wells were washed 3 times with washing buffer, and blocked for 60 minutes with PBS containing 2% BSA. After being washed 3 times with washing buffer, the wells were added with gradiently-diluted antibodies, incubated at 37° C. for 60 minutes, and washed 3 times with washing buffer before adding a HRP-labeled mouse anti-human IgG4 secondary antibody diluted at 1:10000. The mixture was incubated at 37° C. for 1 hour, washed three times with washing buffer, and added with 100 μL of TMB substrate solution for color development at room temperature for 30 minutes, then the reaction was stopped with 100 μL of 2M hydrochloric acid solution and the absorbance was read at 450 nm.
The humanized antibodies hu17, hu18, and hu19 can specifically bind to hBTLA.

[3] = target: T3, human BTLA expressed on cells (human, UniProt Q7Z6A9 31-289); assay: cell-based or functional assay
[4] = target: T1, recombinant protein of human BTLA …; assay: FACS, blocking of biotin-labeled hBTLA binding to hHVEM-293F cells
Description: Then the cells were mixed with previously biotin-labeled hBTLA (1 μg/mL) protein, incubated at 4° C. for 15 minutes, followed by mixing with 50 μL of humanized antibody diluent (initial concentration: 5 μg/mL, 3-fold titration) at different concentrations, and incubating at room temperature for 30 minutes. After being washed with an FACS buffer twice, the cells were added with 100 μL of goat anti-human IgG-PE antibody, incubated for 30 minutes away from light, and assayed by FACS after two washes with an FACS buffer. The washed cells were resuspended in 4° C. buffer containing propidium iodide (PI) and 0.02% sodium azide that prevents receptor internalization and analyzed by flow cytometry. Viable cells were gated on the basis of PI positive cells being excluded from the FSC/SSC gate and their geometric mean fluorescence intensity was measured. The data were analyzed using a sigmoidal dose-response model within Prism™ software.
The […] antibodies hu17, hu18, and hu19 can effectively block the binding of human BTLA to HVEM on the cell surface.

murine BTLA = target: T4, murine BTLA (murine, UniProt Q7TSA3 30-183, limits assumed); assay: sheet shows OD:450nm against Log:ng/mL (ELISA-type readout); the text describes a Fortebio/biosensor assay with BTLA coupled to a chip
T4 sequence (looked up): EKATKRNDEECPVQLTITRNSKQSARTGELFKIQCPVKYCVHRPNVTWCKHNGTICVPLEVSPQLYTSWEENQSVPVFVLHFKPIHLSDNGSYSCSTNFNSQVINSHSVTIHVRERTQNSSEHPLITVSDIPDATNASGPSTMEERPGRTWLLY

[5] = target: T3, human BTLA expressed on cells; assay: FACS on 293F cells expressing hBTLA
Description: The humanized anti-BTLA antibodies were determined for their binding ability to hBTLA expressed on cells using cell-based flow cytometry (FACS). […] Then the cells were mixed with 50 μL of antibody diluent at different concentrations (initial concentration: 10 μg/mL, 3-fold titration), and incubated at room temperature for 30 minutes. After being washed with an FACS buffer twice, the cells were added with 100 μL of goat anti-human IgG-PE antibody, incubated for 30 minutes away from light, and assayed by FACS after two washes with an FACS buffer. The washed cells were resuspended in 4° C. buffer containing propidium iodide (PI) and 0.02% sodium azide that prevents receptor internalization and analyzed by flow cytometry. Viable cells were gated on the basis of PI positive cells being excluded from the FSC/SSC gate and their geometric mean fluorescence intensity was measured. The data were analyzed using a sigmoidal dose-response model within Prism™ software.
The humanized antibodies hu17, hu18, and hu19 can effectively bind to hBTLA on 293 cells.

B1: humanized antibody hu17 (antibody, V domains shown)
VH: QVQLVQSGAEVKKPGASVKLSCKASGYNFKHTYAHWVRQAPGQGLEWIGRIDPANGNTKYDPKFQGRATMTADTASNTAYLELSSLRSEDTAVYYCVADHYGSSLLDYWGQGTLVTVSS
VL: DIVMTQTPLSLSVTPGQPASISCKSSQSLLDSDGKTYLNWFQQRPGQSPRRLIYLVSKLDSGVPDRFSGSGSGTDFTLKISRVEAEDVGVYYCWQGTYFPYTFGQGTKLEIK
notes: also called hull [sic]; humanized antibody 17
Kd [1]: 0.186 nM | koff [1]: 0.000116 s⁻¹ | kon [1]: 624000 M⁻¹ s⁻¹ | EC50 [2]: 0.0063 µg/mL | EC50 (luciferase reporter, T cell activation) [3]: 0.257 µg/mL | IC50 [4]: 0.143 µg/mL | binding result (murine BTLA): no binding (tested: 1000 ng/mL) | EC50 [5]: 0.0967 µg/mL
